The text below walks through data of patent US20130030156A1 (Merck Sharp & Dohme, published 2013).

In this test the target is T1, human ILT5 on the surface of human peripheral blood cells (human, UniProt O75022 24-631).
T1 construct: whole, on cells; Endogenous ILT5 on primary human cells; also called surface ILT5; hILT5
The test can be described thus: flow cytometry, TRX585 staining of human PBMCs. An excerpt: The latter plots show the levels of two fluorescent parameters (i.e., fluorescent antibodies) on various cell subpopulations, quantitate the proportions of cells displaying these parameters, and indicate the frequency of cells present at each point in the plot. Here, peripheral blood mononuclear cells (PBMCs) from a healthy human donor were stained with the TRX585 antibody as well as antibodies specific for the indicated cell subset. In FIG. 1A, plots depict ILT5 (TRX585) expression by gated CD56⁻CD3⁺CD4⁺ or CD56⁻CD3⁺CD8⁺ T cells. In FIG. 1B, PBMCs were stained as in (A) and subsequently stained for intracellular Foxp3. Plots show ILT5 expression by gated CD56⁻CD3⁺CD4⁺Foxp3⁺ or CD56⁻ CD3⁺CD4⁺Foxp3⁻ T cells. […] Percentages of gated cells and mean fluorescence intensity of the ILT5-staining of ILT5⁺ cells are depicted inside and above plots, respectively. […]
Peripheral blood mononuclear cells (PBMCs) from healthy human blood donors were stained with a murine monoclonal antibody (TRX585) comprising a heavy chain variable region comprising the amino acid sequence of SEQ ID NO: 2 or SEQ ID NO: 3, and a light chain variable region comprising the amino acid sequence of SEQ ID NO: 1. […] PBMCs were also stained with antibodies specific for defined hematopoietic cell lineages and analyzed for ILT5 expression by flow cytometry.
(Flow cytometry measures light scatter and fluorescence of single cells or particles in a stream.)

T1 sequence (O75022 24-631): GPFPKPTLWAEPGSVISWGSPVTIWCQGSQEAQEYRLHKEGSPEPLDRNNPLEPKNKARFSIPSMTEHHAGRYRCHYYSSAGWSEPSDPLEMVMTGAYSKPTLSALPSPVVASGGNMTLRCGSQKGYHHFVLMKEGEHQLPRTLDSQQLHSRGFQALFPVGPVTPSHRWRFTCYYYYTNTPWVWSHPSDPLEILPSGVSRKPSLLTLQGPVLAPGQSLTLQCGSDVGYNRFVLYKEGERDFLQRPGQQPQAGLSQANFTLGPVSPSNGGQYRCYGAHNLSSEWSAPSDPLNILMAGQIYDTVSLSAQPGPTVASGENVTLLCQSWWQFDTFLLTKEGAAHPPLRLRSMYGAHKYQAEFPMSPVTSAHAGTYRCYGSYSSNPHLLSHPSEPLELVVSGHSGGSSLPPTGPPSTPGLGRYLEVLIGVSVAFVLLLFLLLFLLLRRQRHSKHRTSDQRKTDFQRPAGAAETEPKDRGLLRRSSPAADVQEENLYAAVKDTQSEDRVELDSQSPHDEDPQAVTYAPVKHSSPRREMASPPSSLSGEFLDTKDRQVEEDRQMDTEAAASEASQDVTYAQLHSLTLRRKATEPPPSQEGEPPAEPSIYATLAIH

B1: TRX585 (8G6 mAb), mouse anti-human ILT5 monoclonal antibody (antibody, V domains shown)
VH: DVQLQESGPGLVKPSQSLFLTCSVTGYSISSSYYWNWIRQFPGNKLEWMGYISFDGSNNYNPSLKNRISITRDTSKNQFFLKLNSVTTEDTATYYCAREKENYYGSSFYYFDYWGLGTSLTVSS
VL: DIQMTQSPASLSVSVGETVTITCRASENIYSNLAWYQQKQGKSPQVLVYAATNLADGVPSRFSGSGSGTQFSLKINSLQSEDFGNYFCQHFWRIPWTFGGGTKLEIK
notes: Murine monoclonal antibody, IgG1, kappa, purified from hybridoma supernatant; also called TRX585 antibody; TRX585 mAb
With B1, the binding result is recorded as “binds”.
